Target: T1, human CD80 (human, UniProt P33681 35-288)
T1 construct: whole, on cells; also called human CD80-expressing acute myelogenous leukemia cell line (Cat#CRL-2740, ATCC)
T1 sequence (looked up): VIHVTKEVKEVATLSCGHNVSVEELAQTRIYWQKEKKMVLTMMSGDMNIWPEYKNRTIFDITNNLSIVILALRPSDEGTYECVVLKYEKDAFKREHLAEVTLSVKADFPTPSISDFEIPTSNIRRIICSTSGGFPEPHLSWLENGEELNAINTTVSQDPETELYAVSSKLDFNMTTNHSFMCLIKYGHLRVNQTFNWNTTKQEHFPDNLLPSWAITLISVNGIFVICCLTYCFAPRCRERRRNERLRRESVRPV
Experiment: flow cytometry on human CD80-expressing AML cells; grade = binding percentage of the wild-type, ++++ (100%)
Description: FIGS. 1A-C. […] PE-SA only; biotinylated protein control [porcine CD3εγ ectodomain single-chain fusion protein (pCD3εγ)] […] B) Bar graph presentation of the mean fluorescence intensity (MFI) from flow cytometry binding analysis data as described in A). Different concentrations of biotinylated pCD3εγ were used as non-specific fluorescence control. Error bars are included based on the calculated standard deviation. […] The concentration of the competitor is indicated. All figures of 1A-C are representatives of multiple individual experiments.

binding result: binds
B1: Non-N-Glycosylated soluble human CTLA-4-6×His (receptor)
chain: KAMHVAQPAVVLASSRGIASFVCEYASPGKATEVRVTVLRQADSQVTEVCAATYMMGNELTFLDDSICTGTSSGNQVALTIQGLRAMDTGLYICKVELMYPPPYYLGIGAGTQIYVIDPEPCPDSDHHHHHH
modifications: biotinylated for the direct binding stain (sites not given); unlabeled in the blocking assay
notes: Expressed in Pichia pastoris; also called wild-type soluble human CTLA-4; human CTLA-4 wild-type
